Experimental data as given in patent US20230213527A1 (QUANTUM SI, published 2023).
Values belong to the binder of their own block, whether it stands above or below them. Square brackets hold non-standard residues; d marks the D form. Ends that are not written are not given here. Cit = NC(=O)NCCC[C@H](N)C(=O)O

What was measured:
[1] = molecular target: T1, QP789, LCitLAFAYPDDDK (SEQ ID NO: 839), state with N-terminal citrulline (CitLAFAYPDDDK); assay: single-molecule on-chip dynamic sequencing
T1 construct: residue range inferred
T1 peptide: [Cit]LAFAYPDDDK

[2] = molecular target: T2, … (SEQ ID NO: 836), state with N-terminal SDMA (human, symmetric dimethylarginine (SDMA) at position 2 of SEQ ID NO: 836 (N-terminal residue of this state); conjugated C-terminally to a macromolecular linker); assay: single-molecule on-chip dynamic sequencing
T2 construct: residue range inferred

[3] = molecular target: T3, QP748, … (SEQ ID NO: 915), state with N-terminal arginine; assay: single-molecule on-chip sequencing with PS621, PS610 and PS961; average of 10 sequencing reactions
T3 construct: State after aminopeptidase cleavage of the N-terminal leucine; residue range inferred; also called R-X peptide, X = S
T3 peptide: RSAFAYPDDDK

[4] = molecular target: T4, QP943, … (SEQ ID NO: 925), state with N-terminal arginine; assay: as above
T4 construct: State after aminopeptidase cleavage of the N-terminal leucine; residue range inferred; also called R-X peptide, X = V
T4 peptide: RVAFAYPDDDK

[5] = molecular target: T5, QP941, … (SEQ ID NO: 923), state with N-terminal arginine; assay: as above
T5 construct: State after aminopeptidase cleavage of the N-terminal leucine; residue range inferred; also called R-X peptide, X = Q
T5 peptide: RQAFAYPDDDK

[6] = molecular target: T6, QP747, … (SEQ ID NO: 917), state with N-terminal arginine; assay: as above
T6 construct: State after aminopeptidase cleavage of the N-terminal leucine; residue range inferred; also called R-X peptide, X = A
T6 peptide: RAAFAYPDDDK

[7] = molecular target: T7, QP942, … (SEQ ID NO: 921), state with N-terminal arginine; assay: as above
T7 construct: State after aminopeptidase cleavage of the N-terminal leucine; residue range inferred; also called R-X peptide, X = T
T7 peptide: RTAFAYPDDDK

[8] = molecular target: T8, QP938, … (SEQ ID NO: 919), state with N-terminal arginine; assay: as above
T8 construct: State after aminopeptidase cleavage of the N-terminal leucine; residue range inferred; also called R-X peptide, X = E
T8 peptide: REAFAYPDDDK

[9] = molecular target: T9, QP707, … (SEQ ID NO: 817), state with N-terminal arginine (RLAFAYPDDDK); assay: as above
T9 construct: residue range inferred from the recognized N-terminal residue; also called R-X peptide, X = L
T9 peptide: RLAFAYPDDDK

[10] = molecular target: T10, QP746, … (SEQ ID NO: 913), state with N-terminal arginine; assay: as above
T10 construct: State after aminopeptidase cleavage of the N-terminal leucine; residue range inferred; also called R-X peptide, X = Y
T10 peptide: RYAFAYPDDDK

[11] = molecular target: T11, QP749, … (SEQ ID NO: 911), state with N-terminal arginine; assay: as above
T11 construct: State after aminopeptidase cleavage of the N-terminal leucine; residue range inferred; also called R-X peptide, X = I
T11 peptide: RIAFAYPDDDK

[12] = molecular target: T4, QP943, … (SEQ ID NO: 925), state with …; assay: cell-based or functional assay
[13] = molecular target: T9, QP707, … (SEQ ID NO: 817), state with …; assay: cell-based or functional assay
[14] = molecular target: T10, QP746, … (SEQ ID NO: 913), state with …; assay: cell-based or functional assay
[15] = molecular target: T11, QP749, … (SEQ ID NO: 911), state with …; assay: cell-based or functional assay
[16] = molecular target: T12, QP706, vimentin peptide fragment … (SEQ ID NO: 841), state with N-terminal leucine (LEQQNK); assay: single-molecule on-chip sequencing of QP706 with PS610, PS1220 and PS1223; LEQ cluster in bin ratio v. pulse duration plot
T12 construct: residue range inferred from the printed segment
T12 peptide: LEQQNK
Protocol: (§1) Sequencing reactions using the recognizers PS610 (FYW), PS1220 (R), and PS1223 (LIV) were performed separately for the QP706 and QP1073 peptide fragments. Each recognizer was labeled with a unique dye and/or unique number of dyes. A scatter plot of bin ratio v. pulse duration is shown for the QP706 peptide fragment in FIG. 18A and for the QP1073 peptide fragment in FIG. 18B. In the plot of FIG. 18A, three clusters corresponding to FLE, LEQ, and RFL segments are visible. […] In the plot of FIG. 18B, two clusters corresponding to FLE and LEQ segments are visible, but there is no cluster corresponding to RFL.

[17] = molecular target: T13, QP1073, citrullinated vimentin peptide fragment VCitFLEQQNK (SEQ ID NO: 842), state with N-terminal leucine …; assay: single-molecule on-chip sequencing of QP1073 with PS610, PS1220 and PS1223; bin ratio v. pulse duration plot
T13 construct: State after aminopeptidase cleavage
T13 peptide: LEQQNK
Protocol: as §1

[18] = molecular target: T14, QP1033, ICitLAFAYPDDDK (SEQ ID NO: 850) (also: C-terminal azidolysine (general statement for all synthetic peptides)); assay: single-molecule on-chip sequencing; recognition of the N-terminal amino acid
T14 peptide: I[Cit]LAFAYPDDDK-NH2
Protocol: (§2) In this example, sequencing reactions were conducted for 4 pairs of unmodified and citrullinated peptides: QP1028 & QP1029, QP1030 & QP1031, QP1032 & QP1033, and QP707 & QP789. […] For the QP1028 & QP1029 and QP1030 & QP1031 pairs, sequencing reactions were conducted using the PS610 (FYW) recognizer. For the QP1032 & QP1033 and QP707 & QP789 pairs, sequencing reactions were conducted using the PS1223 (LIV) recognizer.

[19] = molecular target: T15, QP707, LRLAFAYPDDDK (SEQ ID NO: 817) (not fully specified (C-terminus); also: surface-immobilized through C-terminal linker); assay: as above
T15 construct: Intact peptide, N-terminal leucine; surface-immobilized through a C-terminal linker
T15 peptide: LRLAFAYPDDDK
Protocol: as §2

[20] = molecular target: T16, QP1032, IRLAFAYPDDDK (SEQ ID NO: 849); assay: as above
T16 peptide: IRLAFAYPDDDK
Protocol: as §2

[21] = molecular target: T17, QP789, LCitLAFAYPDDDK (SEQ ID NO: 839) (also: C-terminal azidolysine (general statement for all synthetic peptides)); assay: as above
T17 construct: Intact peptide, N-terminal leucine
T17 peptide: L[Cit]LAFAYPDDDK-NH2
Protocol: as §2

[22] = molecular target: T18, QP1073, citrullinated vimentin peptide fragment VCitFLEQQNK (SEQ ID NO: 842), state with N-terminal …; assay: single-molecule on-chip dynamic sequencing; bin ratio v. pulse duration clusters
T18 construct: residue range inferred
T18 peptide: [Cit]FLEQQNK
Protocol: as §1

[23] = molecular target: T19, QP706, vimentin peptide fragment … (SEQ ID NO: 841), state with N-terminal arginine (RFLEQQNK); assay: single-molecule on-chip sequencing of QP706 with PS610, PS1220 and PS1223; RFL cluster in bin ratio v. pulse duration plot
T19 construct: residue range inferred from the printed segment
T19 peptide: RFLEQQNK
Protocol: as §1

binding result [1]: no binding | binding result [2]: no binding | PW of R-X [3]: < 0.12 s | PW of R-X [4]: 0.41 s | PW of R-X [5]: < 0.06 s | PW of R-X [6]: < 0.12 s | PW of R-X [7]: < 0.06 s | PW of R-X [8]: < 0.06 s | PW of R-X [9]: 0.47 s | PW of R-X [10]: 0.18 s | PW of R-X [11]: 0.28 s | RS R-X [12]: 25.5 min | RS R-X [13]: 17.3 min | RS R-X [14]: 9.6 min | RS R-X [15]: 15.4 min
B1: PS621 (other)
chain: MHSKFSHAGRICGAKFKVGEPIYRCKECSFDDTCVLCVNCFNPKDHTGHHVYTTICTEFNNGICDCGDKEAWNHTLFCKAEEG
notes: Dye-labeled N-terminal arginine recognizer; also called PS621 (R)

binding result [16]: binds | binding result [17]: binds | Pulse Width [18]: 0.84 s | Pulse Width [19]: 0.42 s | Pulse Width [20]: 0.58 s | Pulse Width [21]: 0.92 s
B2: PS1223 (designed binder)
chain: MPTAASATESAIEDTPAPARPEVDGRTKPKRQPRYHVVLWDDDDHTYQYVVVMLRSLFGHPPSRGYRMAKEMDTQGRVIVLTTTREHAELKRDQIHAFGRDRLLARSKGSMKASIEAEEGSAGSAAGSGEFGSAGSAAGSGEFGSAGSAAGSGEFMPTAASATESAIEDTPAPARPEVDGRTKPKRQPRYHVVLWDDDDHTYQYVVVMLRSLFGHPPSRGYRMAKEMDTQGRVIVLTTTREHAELKRDQIHAFGRDRLLARSKGSMKASIEAEE
notes: also called PS1223 (LIV)

binding result [22]: no binding | binding result [23]: binds
B3: PS1220 (designed binder)
chain: MHSKFSHAGRICGAKFKVGEPIYRCKECSFDDTCVLCVNCFNPKDHLGHHVYTTICTEFNNGECDCGDKTAWNHTLFCKAEEGSAGSAAGSGEFMHSKFSHAGRICGAKFKVGEPIYRCKECSFDDTCVLCVNCFNPKDHLGHHVYTTICTEFNNGECDCGDKTAWNHTLFCKAEEG
notes: also called PS1220 (R)
